{"source": "patent CN113912709A", "about": "(SHENZHEN NATIONAL CLINICAL RES CENTER FOR INFECTIOUS …, dated 2022)", "binders": {"B1": {"name": "VacW-209 (antibody, V domains shown)", "VH": "QVQLVESGGGVVQPGRSLRLSCAASGFTFSSIAMHWVRQAPGKGLEWVAVMSFDGSIKYYGDSVKGRFTISRDNSKSTLYLQMNSLRAEDTAVYYCARGVQGYYDRSGYYNLDYNYGMDVWGQGTTVTVSS", "VL": "QSVLTQPPSVSGAPGQRVTISCTGSSSNIGAGYDVHWYQQLPGTAPKLLIYGNSNRPSGVPDRFSGSKSGTSASLAITGLQAEDEADYYCQSYDSSLSGWVFGGGTKLTVL"}, "B2": {"name": "VacW-105 (antibody, V domains shown)", "VH": "QVQLVQSGAEVKKPGSSVKVSCKASGGTFRSYTISWVRQAPGQGLEWMGRILPILGIANYAQKFQGRVTITADKSTSTAYMELSSLRSEDTAVYYCARVTGAPVESAAWFDPWGQGTLVTVSS", "VL": "not shown"}, "B3": {"name": "VacW-138 (antibody, V domains shown)", "VH": "not shown", "VL": "AIQLTQSPFSLSASVGDRVTITCRASQGISSALAWYQQKPGKAPKLLIYDASSLESGVPSRFSGSGSGTDFTLTISSLQPEDFATYFCQQVDTYQFTFGPGTKVDIK"}, "B4": {"name": "VacW-201 (antibody, V domains shown)", "VH": "EVQLVESGGGLVQPGGSLRLSCAASGFTFSSYWMNWVRQAPGKGLEWVANIKQDGSEKYYVDSVKGRFTISRDNAKNSLYLQMNSLRAEDTAVYYCARMEYPYGGVDYWGQGTLVTVSS", "VL": "NFMLTQPHSVSESPGKTVTISCTGSSGSIASNYVQWYQQRPGSAPTTVIYEDNQRPSGVPDRFSGSIDSSSNSASLTISGLKTEDEADYYCQSYDSSNRNWVFGGGTKLTVL"}, "B5": {"name": "VacW-212 (antibody, V domains shown)", "VH": "B4 VH with G55E, Y80F, A88V, V106I, S119A", "VL": "B4 VL"}, "B6": {"name": "VacW-215 (antibody, V domains shown)", "VH": "EVQLVESGGGLIQPGGSLRLSCAASGFTVSSNYMSWVRQAPGKGLEWVSVIYSGGSTYYADSVKGRFTISRDNSKNTLYLQMNSLRAEDTAVYYCARSTWLRGGFDYWGQGTLVTVSS", "VL": "B4 VL with R99H, N100F, W101Y, G105T, L109V"}}, "note": "Changes are numbered by the printed parent chain.", "data": [{"molecular_target": "SARS-CoV-2 wild-type spike protein (on pseudovirus) (SARS-CoV-2, UniProt P0DTC2 14-1273)", "assay": "cell-based or functional assay", "units": {"假病毒中和试验 IC50": "µg/mL"}, "values": [{"binder": "B1", "假病毒中和试验 IC50": 0.03}]}, {"molecular_target": "T1, SARS-CoV-2 wild-type RBD protein (SARS-CoV-2, UniProt P0DTC2 319-541)", "T1 construct": "domain: RBD", "assay": "SPR, Biacore 8K, RBD on CM5 chip, IgG injected, 1:1 model", "units": {"Kd": "pM"}, "values": [{"binder": "B1", "Kd": 11.3}, {"binder": "B2", "Kd": 1640}, {"binder": "B3", "Kd": 1100}, {"binder": "B4", "Kd": 880}, {"binder": "B5", "Kd": 653}, {"binder": "B6", "Kd": 405}]}]}
